The results in this text go back to publication PMC10786891, “Massively parallel profiling of RNA-targeting CRISPR-Cas13d”.

T1: EsCas13d, nuclease-dead (Eubacterium siraeum, UniProt B0MS50, R295A;H300A;R849A;H854A)
T1 sequence: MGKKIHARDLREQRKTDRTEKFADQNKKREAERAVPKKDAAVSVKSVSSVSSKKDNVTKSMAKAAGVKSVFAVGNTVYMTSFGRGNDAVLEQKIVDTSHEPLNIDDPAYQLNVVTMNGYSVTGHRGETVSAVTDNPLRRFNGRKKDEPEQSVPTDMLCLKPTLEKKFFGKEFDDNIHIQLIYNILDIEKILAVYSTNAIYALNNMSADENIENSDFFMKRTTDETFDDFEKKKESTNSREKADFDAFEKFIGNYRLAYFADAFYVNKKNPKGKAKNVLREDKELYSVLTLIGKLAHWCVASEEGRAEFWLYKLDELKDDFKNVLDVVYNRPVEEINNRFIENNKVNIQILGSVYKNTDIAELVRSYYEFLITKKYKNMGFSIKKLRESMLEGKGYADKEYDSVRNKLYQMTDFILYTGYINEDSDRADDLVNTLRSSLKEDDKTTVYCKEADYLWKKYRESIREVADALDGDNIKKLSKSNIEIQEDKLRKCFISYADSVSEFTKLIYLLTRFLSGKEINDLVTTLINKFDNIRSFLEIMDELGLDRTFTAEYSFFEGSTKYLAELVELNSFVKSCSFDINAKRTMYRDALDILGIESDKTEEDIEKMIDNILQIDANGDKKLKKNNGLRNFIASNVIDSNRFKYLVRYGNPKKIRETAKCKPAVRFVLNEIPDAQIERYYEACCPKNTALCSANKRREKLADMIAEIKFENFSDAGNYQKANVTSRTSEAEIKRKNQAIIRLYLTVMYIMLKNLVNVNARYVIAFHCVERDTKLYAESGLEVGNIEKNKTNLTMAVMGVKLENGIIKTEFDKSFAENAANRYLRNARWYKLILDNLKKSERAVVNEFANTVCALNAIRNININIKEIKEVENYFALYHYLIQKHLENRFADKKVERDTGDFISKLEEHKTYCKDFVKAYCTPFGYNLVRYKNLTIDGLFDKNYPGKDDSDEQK

B1: target 1 MT 5'PFS GAA 3'PFS UGU (mixed)
RNA 1: CACCCGUGCAAAAAUGCAGGGGUCUAAAACUGAGCGGAUAACCUCUCUAUGG
RNA 2: GGGAAUGGAUCCACAUCUACGAAUUCGAACCAUAGAGAGGUUAUCCGCUCAUGUAGAUCGGAAGAGCACACGU
B2: target 1 MT 5'PFS AGG 3'PFS UAC (mixed)
RNA 1: B1 RNA 1
RNA 2: B1 RNA 2 with G27A, A28G, A29G, G53A, U54C
B3: target 1 MT 5'PFS GUG 3'PFS CUA (mixed)
RNA 1: B1 RNA 1
RNA 2: B1 RNA 2 with A28U, A29G, U52C, G53U, U54A
B4: target 1 MT 5'PFS ACU 3'PFS AUA (mixed)
RNA 1: B1 RNA 1
RNA 2: B1 RNA 2 with G27A, A28C, A29U, U52A, G53U, U54A
B5: target 1 MT 5'PFS GAA 3'PFS AAC (mixed)
RNA 1: B1 RNA 1
RNA 2: B1 RNA 2 with U52A, G53A, U54C
B6: target 1 MT 5'PFS GGA 3'PFS GGU (mixed)
RNA 1: B1 RNA 1
RNA 2: B1 RNA 2 with A28G, U52G
B7: target 1 MT 5'PFS GUG 3'PFS CUC (mixed)
RNA 1: B1 RNA 1
RNA 2: B1 RNA 2 with A28U, A29G, U52C, G53U, U54C
B8: target 1 C21U,C22A (mixed)
RNA 1: B1 RNA 1
RNA 2: B1 RNA 2 with A28U, C30A, C31U, U52C, G53C, U54G
B9: target 1 C4A,C7A (mixed)
RNA 1: B1 RNA 1
RNA 2: B1 RNA 2 with A28U, C45A, C48A, U52C, G53C, U54G
B10: target 1 MT 5'PFS UAG 3'PFS CGG (mixed)
RNA 1: B1 RNA 1
RNA 2: B1 RNA 2 with G27U, A29G, U52C, U54G
B11: target 1 MT 5'PFS ACU 3'PFS AUC (mixed)
RNA 1: B1 RNA 1
RNA 2: B1 RNA 2 with G27A, A28C, A29U, U52A, G53U, U54C
B12: target 1 MT 5'PFS GGC 3'PFS UUC (mixed)
RNA 1: B1 RNA 1
RNA 2: B1 RNA 2 with A28G, A29C, G53U, U54C
B13: target 1 MT 5'PFS UAG 3'PFS CGU (mixed)
RNA 1: B1 RNA 1
RNA 2: B1 RNA 2 with G27U, A29G, U52C
B14: target 1 MT 5'PFS UCC 3'PFS UUG (mixed)
RNA 1: B1 RNA 1
RNA 2: B1 RNA 2 with G27U, A28C, A29C, G53U, U54G
B15: target 1 MT 5'PFS GCG 3'PFS UGC (mixed)
RNA 1: B1 RNA 1
RNA 2: B1 RNA 2 with A28C, A29G, U54C
B16: target 1 MT 5'PFS GAA 3'PFS UGA (mixed)
RNA 1: B1 RNA 1
RNA 2: B1 RNA 2 with U54A
B17: target 1 MT 5'PFS CUC 3'PFS CGA (mixed)
RNA 1: B1 RNA 1
RNA 2: B1 RNA 2 with G27C, A28U, A29C, U52C, U54A
B18: target 1 MT 5'PFS GGA 3'PFS AGC (mixed)
RNA 1: B1 RNA 1
RNA 2: B1 RNA 2 with A28G, U52A, U54C
B19: target 1 MT 5'PFS AAU 3'PFS AAC (mixed)
RNA 1: B1 RNA 1
RNA 2: B1 RNA 2 with G27A, A29U, U52A, G53A, U54C
B20: target 1 MT 5'PFS GUG 3'PFS CUU (mixed)
RNA 1: B1 RNA 1
RNA 2: B1 RNA 2 with A28U, A29G, U52C, G53U
B21: target 1 MT 5'PFS GGA 3'PFS GGG (mixed)
RNA 1: B1 RNA 1
RNA 2: B1 RNA 2 with A28G, U52G, U54G
B22: target 1 MT 5'PFS GAA 3'PFS UGC (mixed)
RNA 1: B1 RNA 1
RNA 2: B1 RNA 2 with U54C
B23: target 1 MT 5'PFS GGA 3'PFS AGU (mixed)
RNA 1: B1 RNA 1
RNA 2: B1 RNA 2 with A28G, U52A
B24: target 1 MT 5'PFS GCG 3'PFS UGA (mixed)
RNA 1: B1 RNA 1
RNA 2: B1 RNA 2 with A28C, A29G, U54A
B25: target 1 MT 5'PFS UAG 3'PFS CGA (mixed)
RNA 1: B1 RNA 1
RNA 2: B1 RNA 2 with G27U, A29G, U52C, U54A
B26: target 1 MT 5'PFS AAU 3'PFS AAU (mixed)
RNA 1: B1 RNA 1
RNA 2: B1 RNA 2 with G27A, A29U, U52A, G53A
B27: target 1 MT 5'PFS UCG 3'PFS UGU (mixed)
RNA 1: B1 RNA 1
RNA 2: B1 RNA 2 with G27U, A28C, A29G
B28: target 1 MT 5'PFS UCC 3'PFS UUU (mixed)
RNA 1: B1 RNA 1
RNA 2: B1 RNA 2 with G27U, A28C, A29C, G53U
B29: target 1 MT 5'PFS AGG 3'PFS UAU (mixed)
RNA 1: B1 RNA 1
RNA 2: B1 RNA 2 with G27A, A28G, A29G, G53A
B30: target 1 MT 5'PFS UAC 3'PFS UCU (mixed)
RNA 1: B1 RNA 1
RNA 2: B1 RNA 2 with G27U, A29C, G53C
B31: target 1 MT 5'PFS CUG 3'PFS UAC (mixed)
RNA 1: B1 RNA 1
RNA 2: B1 RNA 2 with G27C, A28U, A29G, G53A, U54C
B32: target 1 G13C,G15U (mixed)
RNA 1: B1 RNA 1
RNA 2: B1 RNA 2 with A28U, G37U, G39C, U52C, G53C, U54G
B33: target 1 MT 5'PFS AGG 3'PFS UAG (mixed)
RNA 1: B1 RNA 1
RNA 2: B1 RNA 2 with G27A, A28G, A29G, G53A, U54G
B34: target 1 MT 5'PFS ACU 3'PFS AUU (mixed)
RNA 1: B1 RNA 1
RNA 2: B1 RNA 2 with G27A, A28C, A29U, U52A, G53U
B35: target 1 MT 5'PFS GGC 3'PFS UUA (mixed)
RNA 1: B1 RNA 1
RNA 2: B1 RNA 2 with A28G, A29C, G53U, U54A
B36: target 1 MT 5'PFS ACG 3'PFS UAA (mixed)
RNA 1: B1 RNA 1
RNA 2: B1 RNA 2 with G27A, A28C, A29G, G53A, U54A
B37: target 1 C4A (mixed)
RNA 1: B1 RNA 1
RNA 2: B1 RNA 2 with A28U, C48A, U52C, G53C, U54G
B38: target 1 MT 5'PFS GAA 3'PFS AAU (mixed)
RNA 1: B1 RNA 1
RNA 2: B1 RNA 2 with U52A, G53A

Where a chain is given by its changes, count along the chain named. In names and notes the source's numbering stands.

The target of this data set is T1, EsCas13d, nuclease-dead. As to the kind of experiment: crRNA (strand 1, pre-loaded); Mg2+; 40 mM Tris-HCl pH 7.5, 150 mM NaCl, 6 mM MgCl2, 1 mM DTT, 0.1% Tween-20, 0.2 mg/ml BSA; 25 C; 10 min per concentration, then washed. The settings on record: tags: His6-TwinStrep-SUMO cleaved; N-terminal SNAP kept (SNAP-Surface 488); label: 3' end held by stalled T7 RNA polymerase.
For the molecule B1, binding was put at a Kd of 56.5 ± 14.5 nM.

As for B2, the equilibrium dissociation constant (Kd) was 32 ± 13 nM. The figure for B3 is 16.2 ± 2 nM; for B4 it is 67 ± 18 nM; for B5 it is approximately 47 nM.

The molecule B6 yielded an equilibrium dissociation constant (Kd) of 45 ± 18 nM. As for B7, the affinity, expressed as Kd, was 19.4 ± 2.75 nM. The figure for B8 is 28.9 ± 2 nM; for B9 it is 6.6 ± 0.4 nM; for B10 it is 55 ± 10 nM. In turn, B11 registered a Kd of approximately 50 nM. Molecule B12 showed a dissociation constant (Kd) of 12.9 ± 2.4 nM. The molecule B13 yielded a Kd of 63.5 ± 28 nM. In the case of B14 it was 13.3 ± 2.45 nM. In the case of B15 it was 22.5 ± 6.5 nM; in that of B16, 30.5 ± 9 nM; in that of B17, 80 ± 40 nM. Consider B18, for which binding was characterised by a dissociation constant (Kd) of 15.6 ± 2.9 nM. This Kd is about 5.1-fold lower than that of the molecule before. B19 registered a Kd of 47.5 ± 18.5 nM. For B20, the dissociation constant (Kd) amounted to 10.2 ± 0.9 nM. B21 gave a Kd of 54 ± 18 nM. The figure for B22 is 10.8 ± 2.05 nM; for B23 it is 22 ± 3.7 nM; for B24 it is 20.8 ± 7.75 nM.

B25 returned an equilibrium dissociation constant (Kd) of 27 ± 6 nM. In the case of B26 it was 38 ± 17 nM. In the case of B27 it was 57 ± 22 nM; in that of B28, 11 ± 4 nM.

As to B29, the Kd is 35 ± 16.5 nM. In the case of B30 it was 9.9 ± 3.2 nM. In turn, B31 yielded a Kd of 4.1 ± 0.7 nM. This Kd lies about 2.4-fold lower than the previous one.

For B32, binding was characterised by a dissociation constant (Kd) of 66 ± 18 nM. For the molecule B33, the Kd came to 23 ± 6.5 nM. With B34, the dissociation constant (Kd) turned out to be 53 ± 26 nM. B35 showed an equilibrium dissociation constant (Kd) of 11.7 ± 2.55 nM. In the case of B36, the equilibrium dissociation constant (Kd) was determined as 13.5 ± 5 nM.

The molecule B37 gave a Kd of 3.8 ± 0.4 nM. As for B38, the affinity, expressed as Kd, was 40.5 ± 13 nM.

What is called Kd is the equilibrium constant for the complex coming apart.
